Patent publication US20230220042A1 (SHANGHAI JIAO TONG UNIVERSITY SCHOOL OF MEDICINE, published 2023)
Changes are numbered by the printed parent chain. Names and notes keep the numbering of the source.

T1: FcγRIIB (human, UniProt P31994 43-217, biotin-labeled)
T1 construct: extracellular domain; Bought protein; also called CD32b
T1 sequence (looked up): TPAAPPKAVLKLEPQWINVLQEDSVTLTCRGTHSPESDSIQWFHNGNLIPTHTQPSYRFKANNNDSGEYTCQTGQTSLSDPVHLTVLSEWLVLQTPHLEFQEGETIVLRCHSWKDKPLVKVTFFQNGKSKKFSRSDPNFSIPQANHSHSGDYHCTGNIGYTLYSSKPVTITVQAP

T2: FcγRIIA^131H (human, UniProt P12318 34-217, biotin-labeled)
T2 construct: extracellular domain; Bought protein; also called RIIAH
T2 sequence (looked up): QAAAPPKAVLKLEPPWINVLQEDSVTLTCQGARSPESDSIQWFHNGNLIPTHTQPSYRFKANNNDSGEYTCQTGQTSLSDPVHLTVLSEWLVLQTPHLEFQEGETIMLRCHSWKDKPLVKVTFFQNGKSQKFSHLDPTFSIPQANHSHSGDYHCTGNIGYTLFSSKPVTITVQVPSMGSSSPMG

T3: FcγRIIA^131R (human, UniProt P12318 34-217, biotin-labeled)
T3 construct: extracellular domain; Bought protein; also called RIIAR
T3 sequence (looked up): T2 sequence (looked up) with H134R

B1: anti-human OX40 IgG2 antibody Mut_15 (V234Q/A235G/P238L/S239V/G327A/L328E/A330S/I332T) (antibody)
heavy: QVQLQESGPGLVKPSGTLSLTCAVSGGSISSSIWWSWVRQPPGKGLEWIGEIHHSGNTNCNPSLKSRVTISIDKSKNQFSLKLTSVTAADTAVYYCARAGTGTTLDYWGQGTLVTVSSASTKGPSVFPLAPCSRSTSESTAALGCLVKDYFPEPVTVSWNSGALTSGVHTFPAVLQSSGLYSLSSVVTVPSSNFGTQTYTCNVDHKPSNTKVDKTVERKCCVECPPCPAPPQGGLVVFLFPPKPKDTLMISRTPEVTCVVVDVSHEDPEVQFNWYVDGVEVHNAKTKPREEQFNSTFRVVSVLTVVHQDWLNGKEYKCKVSNKAEPSPTEKTISKTKGQPREPQVYTLPPSREEMTKNQVSLTCLVKGFYPSDIAVEWESNGQPENNYKTTPPMLDSDGSFFLYSKLTVDKSRWQQGNVFSCSVMHEALHNHYTQKSLSLSPGK
light: EIVLTQSPGTLSLSPGERATLSCRASQSVSGDYLAWYQQKLGQAPRLLIYGASIRATGIPDRFSGSGSGTDFTLTISKLEPEDFAVYYCQQYGSSPLTFGGGTKVEIKRTVAAPSVFIFPPSDEQLKSGTASVVCLLNNFYPREAKVQWKVDNALQSGNSQESVTEQDSKDSTYSLSSTLTLSKADYEKHKVYACEVTHQGLSSPVTKSFNRGEC
notes: Substitutions in Eu numbering; entries include an unstated signal peptide
B2: anti-human OX40 IgG2 antibody Mut_23 (V266L/S267E/E269K/P271G) (antibody, name in EU numbering)
heavy: QVQLQESGPGLVKPSGTLSLTCAVSGGSISSSIWWSWVRQPPGKGLEWIGEIHHSGNTNCNPSLKSRVTISIDKSKNQFSLKLTSVTAADTAVYYCARAGTGTTLDYWGQGTLVTVSSASTKGPSVFPLAPCSRSTSESTAALGCLVKDYFPEPVTVSWNSGALTSGVHTFPAVLQSSGLYSLSSVVTVPSSNFGTQTYTCNVDHKPSNTKVDKTVERKCCVECPPCPAPPVAGPSVFLFPPKPKDTLMISRTPEVTCVVVDLEHKDGEVQFNWYVDGVEVHNAKTKPREEQFNSTFRVVSVLTVVHQDWLNGKEYKCKVSNKGLPAPIEKTISKTKGQPREPQVYTLPPSREEMTKNQVSLTCLVKGFYPSDIAVEWESNGQPENNYKTTPPMLDSDGSFFLYSKLTVDKSRWQQGNVFSCSVMHEALHNHYTQKSLSLSPGK
light: B1 light
notes: as for B1
B3: anti-human OX40 IgG2 antibody Mut_21 (S267V/S298G/L328W) (antibody, name in EU numbering)
heavy: B2 heavy with L263V, E264V, K266E, G268P, S295G, L325W
light: B1 light
notes: as for B1
B4: anti-human OX40 IgG2 antibody Mut_19 (V266L/S267E/H268S/E269V/P271C) (antibody, name in EU numbering)
heavy: B2 heavy with H265S, K266V, G268C
light: B1 light
notes: as for B1
B5: anti-human OX40 IgG2 antibody Mut_22 (V266L/S267M/H268E/P271Q) (antibody, name in EU numbering)
heavy: B2 heavy with E264M, H265E, K266E, G268Q
light: B1 light
notes: as for B1
B6: anti-human OX40 IgG2 antibody Mut_17 (V266L/S267E/H268S/E269V) (antibody, name in EU numbering)
heavy: B2 heavy with H265S, K266V, G268P
light: B1 light
notes: as for B1
B7: anti-human OX40 IgG2 antibody Mut_16 (S267E/S298G) (antibody, name in EU numbering)
heavy: B2 heavy with L263V, K266E, G268P, S295G
light: B1 light
notes: as for B1
B8: anti-human OX40 IgG2 antibody Mut_20 (V266L/S267E/H268S/E269A/P271C) (antibody, name in EU numbering)
heavy: B2 heavy with H265S, K266A, G268C
light: B1 light
notes: as for B1
B9: anti-human OX40 IgG2 antibody Mut_18 (P233G/S267E) (antibody)
heavy: B2 heavy with P231G, L263V, K266E, G268P
light: B1 light
notes: as for B1
B10: anti-human OX40 IgG2 antibody Mut_24 (V266L/S267E/H268S/E269G/P271T) (antibody, name in EU numbering)
heavy: B2 heavy with H265S, K266G, G268T
light: B1 light
notes: as for B1

biological target: T1, FcγRIIB; experiment: ELISA; relative affinity to FcγRIIB over that to FcγRIIA131R
Description: One hundred μl (2 μg/mL) of antibody or mutant thereof were added to the enzyme-linked plate to be coated overnight, then the supernatant was discarded. The plate was blocked with PBS containing 1% BSA for 2 hours, and washed with PBST (PBS containing 0.05% Tween 20). Biotin-labeled FcγR extracellular domain protein (Beijing Sino Biological Co., Ltd) of appropriate concentration was added and incubated at room temperature for 1 hour, then the supernatant was discarded and the plate was washed with PBST. The Biotin-labeled protein was detected by incubating with Streptavidin-HRP (BD BioSciences) at room temperature for 1 hour. The supernatant was removed, and the color-developing solution was added for color development for 20-40 minutes to determine the absorbance of 650 nm (A650).
Anti-human OX40 antibodies containing these new Fc mutation combinations are expressed and the binding property of the mutant antibody to FcγR are analyzed by Enzyme-linked immunosorbent assay (ELISA).

Row | Binder | RIIB/RIIAR
1 | B1 | 3.67 ratio
2 | B2 | 0.9 ratio
3 | B3 | 1.03 ratio
4 | B4 | 1 ratio
5 | B5 | 1.05 ratio
6 | B6 | 0.83 ratio
7 | B7 | 0.75 ratio
8 | B8 | 0.85 ratio
9 | B9 | 1.03 ratio
10 | B10 | 0.98 ratio

biological target: T4, FcγRI (human, UniProt P12314 16-292, biotin-labeled); experiment: ELISA, coated antibody, biotin-FcγR;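 as to Absorbance value: antibody coated at 2 µg/mL at 100 µL per well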
T4 construct: extracellular domain; Bought protein; also called CD64
T4 sequence (P12314 16-292): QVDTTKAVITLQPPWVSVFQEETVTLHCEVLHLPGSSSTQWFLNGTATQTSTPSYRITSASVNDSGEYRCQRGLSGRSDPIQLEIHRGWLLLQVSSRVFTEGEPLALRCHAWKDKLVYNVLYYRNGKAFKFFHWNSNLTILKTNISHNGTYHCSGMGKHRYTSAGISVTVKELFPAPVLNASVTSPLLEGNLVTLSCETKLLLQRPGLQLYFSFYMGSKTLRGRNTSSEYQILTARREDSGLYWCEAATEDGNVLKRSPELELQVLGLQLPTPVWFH

Row | Binder | Absorbance value | Relative binding affinity RI/G1
11 | B1 | 0.08 A650 | 0.03 ratio
12 | B2 | 0.11 A650 | 0.04 ratio
13 | B3 | 0.16 A650 | 0.06 ratio
14 | B4 | 0.11 A650 | 0.04 ratio
15 | B5 | 0.12 A650 | 0.05 ratio
16 | B6 | 0.14 A650 | 0.05 ratio
17 | B7 | 0.1 A650 | 0.04 ratio
18 | B8 | 0.12 A650 | 0.05 ratio
19 | B9 | 0.14 A650 | 0.05 ratio
20 | B10 | 0.12 A650 | 0.05 ratio

biological target: T5, FcγRIIIA^158V (human, UniProt P08637 17-208, biotin-labeled); experiment: ELISA, coated antibody, biotin-FcγR;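 as to Absorbance value: antibody coated at 2 µg/mL at 100 µL per well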
T5 construct: extracellular domain; Bought protein; also called RIIIAV; CD16a 158V
T5 sequence (P08637 17-208 F176V): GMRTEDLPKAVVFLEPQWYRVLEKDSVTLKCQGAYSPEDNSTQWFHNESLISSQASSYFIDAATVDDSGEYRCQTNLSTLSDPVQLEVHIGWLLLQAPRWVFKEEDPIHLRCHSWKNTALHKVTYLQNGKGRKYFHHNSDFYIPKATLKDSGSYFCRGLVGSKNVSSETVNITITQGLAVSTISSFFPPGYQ

Row | Binder | Absorbance value | Relative binding affinity RIIIAV/G1
21 | B1 | 0.05 A650 | 0.06 ratio
22 | B2 | 0.06 A650 | 0.06 ratio
23 | B3 | 0.06 A650 | 0.06 ratio
24 | B4 | 0.07 A650 | 0.07 ratio
25 | B5 | 0.07 A650 | 0.07 ratio
26 | B6 | 0.06 A650 | 0.06 ratio
27 | B7 | 0.06 A650 | 0.06 ratio
28 | B8 | 0.05 A650 | 0.06 ratio
29 | B9 | 0.08 A650 | 0.09 ratio
30 | B10 | 0.08 A650 | 0.08 ratio

biological target: T1, FcγRIIB; experiment: ELISA, coated antibody, biotin-FcγR;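 as to Absorbance value: antibody coated at 2 µg/mL at 100 µL per well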

Row | Binder | Absorbance value | Increased factor of RIIB binding compared with wild-type IgG2 | Relative binding affinity RIIB/G1
31 | B1 | 0.47 A650 | 6.21 fold | 0.62 ratio
32 | B2 | 0.97 A650 | 13 fold | 1.29 ratio
33 | B3 | 0.32 A650 | 4.23 fold | 0.42 ratio
34 | B4 | 0.82 A650 | 11 fold | 1.09 ratio
35 | B5 | 0.93 A650 | 12.3 fold | 1.22 ratio
36 | B6 | 1.19 A650 | 15.9 fold | 1.58 ratio
37 | B7 | 1.09 A650 | 14.5 fold | 1.44 ratio
38 | B8 | 1.13 A650 | 15.1 fold | 1.5 ratio
39 | B9 | 0.78 A650 | 10.4 fold | 1.04 ratio
40 | B10 | 1 A650 | 13.3 fold | 1.32 ratio

biological target: T2, FcγRIIA^131H; experiment: ELISA, coated antibody, biotin-FcγR;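 as to Absorbance value: antibody coated at 2 µg/mL at 100 µL per well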

Row | Binder | Absorbance value | Relative binding affinity RIIAH/G1
41 | B1 | 0.04 A650 | 0.07 ratio
42 | B2 | 0.43 A650 | 0.75 ratio
43 | B3 | 0.09 A650 | 0.16 ratio
44 | B4 | 0.33 A650 | 0.58 ratio
45 | B5 | 0.33 A650 | 0.57 ratio
46 | B6 | 0.54 A650 | 0.95 ratio
47 | B7 | 0.39 A650 | 0.68 ratio
48 | B8 | 0.48 A650 | 0.85 ratio
49 | B9 | 0.38 A650 | 0.67 ratio
50 | B10 | 0.48 A650 | 0.84 ratio

biological target: T3, FcγRIIA^131R; experiment: ELISA, coated antibody, biotin-FcγR;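 as to Absorbance value: antibody coated at 2 µg/mL at 100 µL per well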

Row | Binder | Absorbance value | Relative binding affinity RIIAR/G1
51 | B1 | 0.04 A650 | 0.17 ratio
52 | B2 | 0.38 A650 | 1.44 ratio
53 | B3 | 0.11 A650 | 0.41 ratio
54 | B4 | 0.28 A650 | 1.08 ratio
55 | B5 | 0.31 A650 | 1.17 ratio
56 | B6 | 0.5 A650 | 1.9 ratio
57 | B7 | 0.5 A650 | 1.92 ratio
58 | B8 | 0.46 A650 | 1.76 ratio
59 | B9 | 0.26 A650 | 1 ratio
60 | B10 | 0.35 A650 | 1.35 ratio

biological target: T6, FcγRIIIA^158F (human, UniProt P08637 17-208, biotin-labeled); experiment: ELISA, coated antibody, biotin-FcγR;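 as to Absorbance value: antibody coated at 2 µg/mL at 100 µL per well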
T6 construct: extracellular domain; Bought protein; also called RIIIAF
T6 sequence (P08637 17-208): as the sequence (P08637 17-208 F176V) above, with V160F counted along it

Row | Binder | Absorbance value | Relative binding affinity RIIIAF/G1
61 | B1 | 0.06 A650 | 0.31 ratio
62 | B2 | 0.07 A650 | 0.35 ratio
63 | B3 | 0.06 A650 | 0.31 ratio
64 | B4 | 0.07 A650 | 0.38 ratio
65 | B5 | 0.06 A650 | 0.33 ratio
66 | B6 | 0.09 A650 | 0.49 ratio
67 | B7 | 0.06 A650 | 0.32 ratio
68 | B8 | 0.06 A650 | 0.31 ratio
69 | B9 | 0.09 A650 | 0.47 ratio
70 | B10 | 0.08 A650 | 0.42 ratio
